Laboratory results reported in the DeepSol protein solubility set.

experiment: soluble on expression in E. coli; label from the status in PepcDB or PDB records

Sequence	soluble on expression in E. coli
MSDTANTAVEVDEQVIEKKLDDLSIGKKRSPSKDDTSKHRLPAAERIRIWEEEQKAKIVLTAGLQGKVKWYSVLRRYGFISRSDGEKDVFVHQTAISKSDTEKFYLRTLADEEEVLFDLVDGKNGPEAANVTGPAGVNVSGSKYRHQLLSRFRKNRKPKIVVGEDFDSKETEKLVEAPAVAMEKKKQRKQRKNKNRKQKDQKGAGDAADSSATTESLGTSSETASPDSKSCTKIISEEAGLSKIDRCDSALDDAGLGAQLIDAQI	soluble
MSEAPATEHGQCLCGAVGFTATLGAREFGVCHCSMCRRWSGGAFMAVECTDIAFENEQRLGVYSSSKWGERCFCKNCGSTLVWRSKDGKHFAVSLQAFDKPSSFTFVQQIFTDEKPSSYSFAQTTQNMTGPEFIAMITSAEH	not soluble
MGSDKIHHHHHHMKHYRQVVSPQLRQQALDWILAAAQRPDPALEPEFDIADDERREAKKVRNLHRHDPLFWDDWFARSGLDALVRDHLRKPRLLRHAAFIKRHADESYIPLHQDIALWEKRYESAQTFWVALTPSRNDNGGMFYYPDDRTIFPHEFDLAYPMFKCIDLQANGISREQLVDAELDAGDVLVWPARTAHGSHNNRSGQLRIGMPIVFVEDDEFHQLNREDSMKTWIASNLKSVFPDEAITEDNLDHYLPQLCDYSLKMVTFLARFSRQFGHAPKIHDFIREPRLATLSASDAGARR	not soluble
MAHHHHHHMRCFRASCCAPSPWQRACSTVASVSDTADLVIVRESPLDNVVLLEMNNGRANVLTPEFISAFLNKLSDLCDPDKSKCSGIILTSKSPGVFSAGLDLNELNTNLSQDRFAQYWSQFQKLFTTLHALPVPLVGAINGHAAAAGCIVALACDYRVMARRHPTKPTHLTIGIAAAKHGFVVPSYVAASMEHVVGFRKAEELLCMGLLLSAGEALKVGLVDEVVEHHDETVVPCLQFMEKLLELPSPAPYWMIKDLSRRHILAPLCTPALRTQDMVSFYNLFSNLQVKKMLAEHAQKFAKK	not soluble
MFVKNVNFYYRQILEKFENSYFAEDLTKVIIGIDCDYLDANELSFSEFKAKYYEALSKNKICDFAGFFGVFSANFVSLFEKIPLSSKKNYDFPLFLFANAKAYLIYEKNSKMFFKFGASKYFEYLKDDIEPMKKKQKNDFEILNSLEDEKNDFLKMCEKAKEYLLSGDIFQVVLSKQLCIKHQVNAFDYYESLSALNPSAYMFYFPSKYGVVLGSSPEFLLKIKKREIYLAPIAGTRNLENNCDLLALEKDLLSDEKELSEHKMLVDLARNDASKFGTQTRVENLFSIIKNKFVMHIVSEVYANMKEDASIFDVIEAVFPAGTLSGAPKIRALEITSELEDCDRGIYGGAVGFLNFNEDITLAILIRCAFFTQDKAYLASGAGIVLQSESQKEYAEICAKRKALLVAFENLKKENQ	not soluble
MSLDAIEAEREVLIGFLQEFVRAASPNPPGDTRAAAAVIQGFLSARGVPNELLGPQESMPNVVSECEGGRAGPRLVYNGHMDVFPVGDGHGWTRDPWSGDIEEGRLHGRGTCDMKTGTAASVIAYAYLYARRAQLAGSVALTAVSDEETGGRWGTRWLLENDTRWRGDCVLNGEPSSLDTIRFSEKGTLRLKFEVLAAGAHGAYVHRSESPTRIAAALIGRLAEVEAIEPSLPAALKAHLQREDVRRALDVAMGEGAADVVTRTTLNVGVLNGGLKINMIPDRCVFEVDIRLPVGTEPDVVLARLEGILAEFPQASMEVQQWHSTPPNVCAHDHPMVDFIADNAQAIVGRRPVAVPSIGSTDCRYWRRSGVPAYVYGPAPGRMAMSNESVDLDEFIAVAKVHAAAGWDYLNGAAEGHHHHHH	not soluble
MDEYNKNPEENDKPEYDMKMEALLKVLNREIPIKAHAHRADDILTAIRIAKEFGLRLTIEHCTEGHLIKDILAEEGVSAIVGSSLTDRSKVELRNLSLKTPGILAKAGVKVAIMTDHPCTPIQYLILCAAMAVREGMDEMEALRAVTINAAELTGIADRVGSIEVGKDADIAIYDGHPFDIRSKVSTTIINGKVVYERKKHERD	not soluble
MPIVYYDGNCIYCYNYVIWLIQHDLPRNYQFATLKGEVGQQFFKQHPEAANKNSVILQKGDCIYFESQAIIKLITALPNRTKLLGVGLWLVPKPVRNFGYRMFANNRNRMWKTTWHQPNDYEKSFFLDDNAKVKLTDLEHHHHHH	soluble
MGSDKIHHHHHHMTDKMQSLALAPVGNLDSYIRAANAWPMLSADEERALAEKLHYHGDLEAAKTLILSHLRFVVHIARNYAGYGLPQADLIQEGNIGLMKAVRRFNPEVGVRLVSFAVHWIKAEIHEYVLRNWRIVKVATTKAQRKLFFNLRKTKQRLGWFNQDEVEMVARELGVTSKDVREMESRMAAQDMTFDLSSDDDSDSQPMAPVLYLQDKSSNFADGIEDDNWEEQAANRLTDAMQGLDERSQDIIRARWLDEDNKSTLQELADRYGVSAERVRQLEKNAMKKLRAAIEA	not soluble
MGSDKIHHHHHHMHKDVSQLPQKANPALVKQANLFADLPTKLIEDFQQEFQLNQWNKGDYINSDILTQRFFVVIEGNIEIKQSNPDTGREATLDMLYAGDCFDLMVLLDNQPHEVIISPLTTVKLLSVKLSTMRYWLWTYPEFNQQFMPYIAKKMREKEQQASSLILHDVTTRLSRIILEHINKIKFYTGTKEEEHQHHLVNGLNDETLARMTGSVRQVINKQLQHWKKEDVIDKKRNQLIIKDLEALEKEAKYTQNLANAPLSKS	not soluble
MAHHHHHHMSSQAQQRAPAYAPRDTHAERLAAADREAAARRDSSTNWTWYPEYHLAPYMGWMNDPTGLVHFRDHYHVFYQYHPYSAEWGPMHWGHMTSEDLVHWQHEKVALAPGDACDRNGCFSGTAVVHEDRMYVFYTGHFALDAATPSNPDAIFEQQCVAVSSDGVNFEKLGAVVRPPPGYVHFRDPKVWQQDGRWWMVCGARDVTKDLGQLLLFTTEDLLKWDDTNWQVLGMTEDKNVFMWECPDYFTIGSREDMKLLLFCPQGKKASEYNYRNRFQNGYTVGQWMPGGPWTVQREFRELDRGHDFYAAQTFLAADGQRRMLMAWCNMWESPMPTKQYGWSGCLTLPRELSYNEATGQLCMLPARELVGLRTPEMMIVPSLLVENNSDAQILENCTAYELDIAFNMETSTAEKYGLWLGSGAELYVDAQSKRLVLNRHYPQHMLSGYRSCELPIGLLLQLHVFIDRSSIEVFVNNGEATFSSRVFPDEGDRALRVFSVNGTADMVGGTMWKLKATVRH	not soluble
MAVTVDDIKLSLRIDVTEDDPMIKSYLDAAKDYVQTAVSKNEDLTIYKQYDFAVSLLTQFWYQNRVTDMTKTPYQVVSMIQQLRGLVAG	not soluble
MKGYSMAKCLTLNTHSWMEVNALKKLFDLAEHIFREKYDIICLQEVNQSISSPLAKSSPNYHPIEGTPALHQDNFALQLVHYLNLQGLHYHWTWAYNHIGYSKYHEGVAILSLKPLKPEDILVSAVDDETDYHTRRALVAETTLNDKVVTVVSLHFSWFEKGFAEEWKRLETTLLEVETPLLLMGDFNNPTGNQGYELVLNSPLALKDSHQIANHVFGDHTIMADIDGWEGNKKALKVDHIFTSEDLSISSSQVVFEGGEAPVVSDHYGLEITMDF	not soluble
MTGEKLLYIETFGCQMNVSDSEKVASLLRGEGYSQTPDSSEADLIIVNTCSVRAKAEHKVYSYLGRFRKLKRDRRLLLGVGGCVAQQEGERLLKRVPWLDLVFGTHNLHLLPEMVRAAEQGERRAAVDFIDNEARLDLFPQADEGGGVTRFVTVMQGCDNFCSYCIVPYVRGREISRRSVEIIGEIRSAVAGGVREVTLLGQNVNSYGLKTPGELSFAGLLREISAIDGLERIRFTTSHPKDISPELIACFAELPKLCGHIHLPAQAGSDSILARMNRGYTRQEYLEKVAALRAARPEILITGDIIVGFPGETEADFLQTLSLMEEVRYTDIFSFAYSPRPETAAASLGDRIMRKETTERLERVQGLQRDMTIERHAGFVGTCQAVLVEGMSKRGDQLYGRTDGNLIVNFAGNPSLAGSLVDVRITRGYPNSLLGELAVFQ	soluble
MGHHHHHHSHCDKCEGRGGKKGAVECCPNCRGTGMQIRIHQIGPGMVQQIQSVCMECQGHGERISPKDRCKSCNGR	soluble
MKLHTLVSCLHDFPVVPKENPEITSIEADSRKVKEGSLFVCMKGYTVDSHDFAKQAAAQGAAAIVAERPIDVDVPVVLVKNTFRSLAVLADYFYGQPTHKLHLIGITGTNGKTTTSHIMDEIMRAHGHKTGLIGTINMKIGDETFEVKNTTPDALTLQQTFAKMVEHGVDSTVMEVSSHALDLGRVHGCDYDVAVFTNLTQDHLDYHKTMEEYKHAKGLLFAQLGNSYNHNREKYAVLNNDDAVTVEYMRSTAATVVTYGIDTTSDVMAKDIAMTSGGTTFTLVTPYESVNVTMKLIGKFNVYNVLAATAAGLVSGVSLETIIDVIKELAGVPGRFEVVDGGQNYTVIVDYAHTPDSLENVLKTAKQFAKGDVYCIVGCGGDRDRTKRPIMASVATQYATHAIYTSDNPRSEDPAAILDDMVHGANGNNYEVIIDRKEAIHHAITKAKADDIIIIAGKGHETYQIIGKDVHHFDDREVAKEAITERLNNEE	not soluble
MCMKQSLFGRVRDAILADFHNVLDEKERKNPIAMLNQYLRDSEREITKIEKLIQRHKTLKSNFARELEQARYFVNKRSKQALIAQEAGELQLHERALEEVAYYEGQVTRLEEMYAGVVEQIDELERRLSEMKNKLKEMHAKRMELMARENMAHANRRMNTAMHKMDENNPFLRFEEIEEHIRDLETRMNEEHERDTFDMKIAKLEREMKEKNDVSLTKELTKLEHHHHHH	not soluble
QSKTATVFLHGYNGGAYSTNYLIRKAEKAGAAQKALVVHVYKNGVMAFKGYWQKSIKNPMVQVVFQDNHASQKAQIYWLHQVLVQLKAKYGVKAYNAVGHSLGANDIVNQALKYGHDKRLPTLNKIVTIGGPFDGLTGFLSTQTEATVRRLDVKPSRFTKHFSEMLKYRHNFPDNVKLLNVYGDTNTGYNNDGFVGVASARSIRYLLRGKLTQYQEAFYSGEQAAHCALNQNPSVAHKMIAFLW	not soluble
MGSDKIHHHHHHMNIEKTRFCINRKIAPGLSIEAFFRLVKRLEFNKVELRNDMPSGSVTDDLNYNQVRNLAEKYGLEIVTINAVYPFNQLTEEVVKKTEGLLRDAQGVGARALVLCPLNDGTIVPPEVTVEAIKRLSDLFARYDIQGLVEPLGFRVSSLRSAVWAQQLIREAGSPFKVLLDTFHHHLYEEAEKEFASRIDISAIGLVHLSGVEDTRPTEALADEQRIMLSEKDVMQNYQQVQRLENMGYRGIYAFEPFSSQLASWSEAEIEEQINRSVSLLLQ	not soluble
MFNLKREHFRDDYLYRFYQYGDTHSKIPSNLYKVLARKLDMISASENINDLRSPPANHLELLEPKENKIYSIRVNKQYCLIFKYENNEVNNLYLDPHSYNL	not soluble
MVVEENCSMHHLERELDLELEIDMAMECAPIGRTIKSALLRAQSEARVIVGLSAAINVLSKSPEGSLFCLMAQPKDGDSATHMHEVLLEAFCYENDIYVIKVDDATKLSRILGQDSVESCCLVQKVWADAPEEQLTKAENQLVDYCEAHWDAPQQPIVQLPAV	not soluble
PNFSEGSSSTESTVRVKHKIEKTTQKLSETVRPRDMFIHDDGAHYKVDDNALYEEIWSDLPHWDVKGIKDISDQYDKAGFKSWFYGIGGSEAKLDLQFSDTIPIDIFQTLFKWSNQSFEYSSFDHILIPFNETKANKKIYLVSYSKQLILEVTVESANYRNIMNDLKNRQSNMPAFSLFSIGSKKEFLLPNKPLTMDKKEFVTESIKTNTFKQALFSDPSIVREDSNYNNRNVLTDGISRLDVNLSQRQVQFQQRNLVQSTSYQTGELIKKSQKYLEDTGSWTDHYQFFNINDSQQLSFYIFMDQIPVINSTAKPFGATSAITVQWANDDILSYKRPNYSLGTNPIKTSETELMGGSEVKMLLSKQTAYDTDKIDQIFLAYQLVSTSTNDDPLVELEPVWAMKVNGKIVPITKDLLRKEGANSGVE	soluble
